{
  "source": "paper PMC3727925",
  "about": "(Molecular Biology of the Cell, 2013)",
  "target": "T1, CHMP3 (human, UniProt Q9Y3E7 1-222)",
  "T1 sequence (looked up)": "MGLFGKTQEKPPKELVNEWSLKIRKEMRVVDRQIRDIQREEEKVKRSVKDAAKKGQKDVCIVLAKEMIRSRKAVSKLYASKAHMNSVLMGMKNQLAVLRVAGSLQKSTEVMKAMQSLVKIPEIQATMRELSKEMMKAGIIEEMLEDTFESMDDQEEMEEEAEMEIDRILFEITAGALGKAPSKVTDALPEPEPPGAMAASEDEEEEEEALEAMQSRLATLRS",
  "test": "negative-stain electron microscopy",
  "data": [
    {"binder": "CHMP2A (natural protein, human, UniProt O43633 1-222, looked up) MDLLFGRRKTPEELLRQNQRALNRAMRELDRERQKLETQEKKIIADIKKMAKQGQMDAVRIMAKDLVRTRRYVRKFVLMRANIQAVSLKIQTLKSNNSMAQAMKGVTKAMGTMNRQLKLPQIQKIMMEFERQAEIMDMKEEMMNDAIDDAMGDEEDEEESDAVVSQVLDELGLSLTDELSNLPSTGGSLSVAAGGKKAEAAASALADADADLEERLKNLRRD", "values": [
      {"measurement": "binding result", "value": "binds"}
    ]}
  ]
}
